Measured values as given in US20110135636A1 (SYMPHOGEN A S, published 2011).

What was measured:
[1] = biological target: T1, wild type full length EGFR purified from A431 cells (human, UniProt P00533 25-1210); experiment: competition ELISA, competitor Ab-1; design: concentration or dose not given beside the values
T1 construct: mature; Bought; coated on ELISA wells; also called full length EGFR receptor antigen; Sigma E3641
Protocol: (§1) The ELISA was adapted from the descriptions published in Ditzel et al, 1995, The Journal of Immunology, Vol 154, Issue 2 893-906.
(§2) An epitope blocking ELISA was performed by diluting full length EGFR receptor antigen to 0.5 μg/ml in PBS; and coating 50 μl/ELISA well overnight at 4° C. […] Finally wells were washed four times with PBS-T and plates were developed by adding 50 μl/well TMB and read at 620 nm every 5-15-30 min. The degree of inhibition was calculated from the formula: % inhibition=(1−(OD competition/OD no competition (PBS)))×100.

[2] = biological target: T1, wild type full length EGFR purified …; experiment: competition ELISA, competitor Ab-11; design: concentration or dose not given beside the values
Protocol: as §1, §2

[3] = biological target: T2, recombinant human EGFR extracellular domain with 6xHis (human, UniProt P00533 25-645); experiment: SPR competition, competitor 1042
T2 construct: In-house produced; also called 6xHis EGFR ECD; soluble human EGFR ECD; not shown: 6xHis tag
Protocol: (§3) SPR analysis was performed on a Biacore 3000 machine containing four flow cells. A CM5 Biacore chip was conjugated with 10,000 Resonance units (Ru) polyclonal anti-His antibody to flow cells 1-4 according to the manufacturer's instructions. […] Immediately after antigen injection the maximal binding of the Anti-EGFR mAb without competition was established in each flow cell during a reference run. Briefly 5 μl antibody at a concentration of 40 μg/ml was injected over all flow cells with captured EGFR followed by stripping of the antibody/antigen complex with a low pH acid wash (10 sec. contact time with 10 mM Glycine-HCl, pH2). After the determination of Anti-EGFR antibody maximal binding to each flow cell, a competition run was performed during the same Biacore cycle. Flow cells were first saturated with EGFR ECD antigen followed by injection of different reference antibodies or Anti-EGFR antibodies into separate flow cells using the same antigen saturating conditions as outlined above. This step was immediately followed by a second injection of Anti-EGFR antibody over the flow cell saturated with EGFR antigen and competition antibody to minimize the dissociation of either antigen or blocking antibody. Then the antibody/antigen complexes were stripped off with a low pH acid wash (10 sec. contact time with 10 mM Glycine-HCl, pH 2) and the whole cycle beginning with the reference run was repeated with a new Anti-EGFR antibody. The degree of inhibition of tested Anti-EGFR antibodies were determined by comparing the Ru max value of the individual Anti-EGFR antibody before and after competition by introduction of report points recorded two seconds before and after injection of each sample.

[4] = biological target: T2, recombinant human EGFR extracellular …; experiment: SPR (BIAcore 2000); IgG captured on anti-human Fc, soluble monovalent EGFR ECD injected
Protocol: Kinetic analysis of the full length IgG antibodies of the invention was performed on a BIAcore 2000, employing an assay as described in (Canziani, Klakamp, et al. 2004, Anal. Biochem, 325:301-307) allowing measurement of monovalent affinities of whole IgG molecules against soluble antigen. […] The chip surface was regenerated in between cycles by stripping the captured antibody/antigen complexes with a 10 second injection of 100 mM H₃PO₄. […] The association rate constant (ka) and dissociation constant (kd) were evaluated globally from the generated sensograms with the BIA evaluation software 4.1 provided by the manufacturer.

[5] = biological target: T2, recombinant human EGFR extracellular …; experiment: SPR competition, competitor 1308
Protocol: as §3

[6] = biological target: T3, EGFRvIII (deletion mutant EGFR) (human, UniProt P00533 25-645, limits assumed); experiment: EGFRvIII ELISA (Example 1)
T3 construct: also called deltaEGFR; rhEGFRvIII

[7] = biological target: T4, Cynomolgus EGFR extracellular domain (Cynomolgus monkey (Macaca fascicularis), UniProt P55245 25-645 (rhesus entry)); experiment: ELISA on cynomolgus EGFR ECD (Example 10)
T4 construct: Cloned without signal peptide; also called Cynomolgus rEGFR ECD; Cynomolgus EGFR ECD
How it was run: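 Wells coated overnight at 4 °C with 1 μg/ml EGFR protein, then given serial four-fold antibody dilutions from 1 μg/ml for 1 h at room temperature. Binding detected with streptavidin-HRP and TMB, read at OD 450 nm.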

[8] = biological target: T1, wild type full length EGFR purified …; experiment: competition ELISA, competitor Ab-2; design: concentration or dose not given beside the values
Protocol: as §1, §2

[9] = biological target: T1, wild type full length EGFR purified …; experiment: competition ELISA, competitor Ab-10; design: concentration or dose not given beside the values
Protocol: as §1, §2

[10] = biological target: T2, recombinant human EGFR extracellular …; experiment: SPR competition, competitor 1449
Protocol: as §3

[11] = biological target: T1, wild type full length EGFR purified …; experiment: competition ELISA, competitor Ab-3; design: concentration or dose not given beside the values
Protocol: as §1, §2

[12] = biological target: T1, wild type full length EGFR purified …; experiment: competition ELISA, competitor ICR10; design: concentration or dose not given beside the values
Protocol: as §1, §2

| % inhibition [1] [%] | % inhibition [2] [%] | % inhibition [3] [%] | Kd [4] [nM] | koff [4] [s⁻¹] | kon [4] [M⁻¹ s⁻¹] | t1/2 [4] [h] | % inhibition [5] [%] | binding result [6] | binding result [7] | % inhibition [8] [%] | % inhibition [9] [%] | % inhibition [10] [%] | % inhibition [11] [%] | % inhibition [12] [%] | Binder |
| --- | --- | --- | --- | --- | --- | --- | --- | --- | --- | --- | --- | --- | --- | --- | --- |
| 12 | 52 | -1 | 4.6 | 0.00015 | 32000 | 1.3 | 68 | no binding | binds | 26 | 30 | -1 | 9 | 88 | antibody 1284 (antibody, human IgG1, kappa, V domains shown, Chimeric IgG1 kappa) VH: QVQLQQPGAELVKPGASVKLSCKASGYTFTSDWMHWMKQRPGQGLEWIGEINPSNGRSSYNEKFKSKATLTVDKSSSTAYMQLSSLTSEDSAVYYCARIGGIYVETYWGQGTLVTVSS VL: DIVLTQSPASLAVSLGQRATISCRASQSVSTSTYSYMHWYQQKSGQPPKLLIKYASNLESGVPARFSGSGSGTDFTLNIHPVEEEDTATYYCQHSWEIPWTFGGGTKLEIKR |
| 3 | 88 | -18 | 18.6 | 0.0032 | 170000 | 0.06 | -10 | no binding | binds | 6 | 13 | -20 | 30 | 57 | antibody 1261 (antibody, human IgG1, kappa, V domains shown, Chimeric IgG1 kappa) VH: EVQLVESGGGLVKPGGSLKLSCAVSGFTFSSYVMSWVRQTPEKRLEWVATITSGGRNIYYLDSVKGRFTISRDNAKNTLYLQMSSLRSEDTAMYYCARHEDYRYDGYYAMDYWGQGTSVTVSS VL: QIVLTQSPAIMSASPGEKVTITCSASSSVSYMHWFQQKPGTSPKLWIYSTSNLASGVPARFSGSGSGTSYSLTISRMEAEDAATYYCQQRSSYPYTFGGGTKLELKR |
| 6 | 92 | 16 | – | – | – | – | 27 | no binding | binds | 37 | 33 | 15 | 77 | 78 | antibody 1257 (antibody, human IgG1, kappa, V domains shown, Chimeric IgG1 kappa) VH: EVQLQQSGPELVKPGASVKIPCKTSGYTFTDYNMAWVKQSHGKSLEWIGDIIPNNGGAIYNQKFKGKATLTVDKSSSTASMELRSLTSEDTAVYFCARKNIYYRYDGAGALDYWGQGTSVTVSS VL: QIVLTQSPAIMSASPGEKVTMTCSASSSVSYIYWYQQKPGSSPRLLIYDASNLASGVPVRFSGSGSGTSYSLTISRMEAEDAATYYCQQWSSYPITFGSGTKLEIKR |
| 12 | 92 | 31 | 4.2 | 0.00016 | 37000 | 1.23 | – | no binding | binds | 8 | 24 | 29 | 12 | 90 | antibody 1260 (antibody, human IgG1, kappa, V domains shown, Chimeric IgG1 kappa) VH: QVQLKESGPGLVAPSQSLSITCTVSGFSLTTYGVHWVRQPPGKGLEWLGVIWAGGSTNYNSALMSRLSIKKDNSKSQVFLKMNSLQTDDTAMYYCARAYGYNFDYWGQGTTLTVSS VL: DIQMTQTTSSLSASLGDRVTISCSASQGITNYLNWYQQKPDGTVKLLIYYSSSLHSGVPSRFSGSGSGTDYSLTISNLEPEDIATYYCQQYSEIPYTFGGGTKLELKR |
